Data from patent US20190367620A1 (Merck KGaA, published 2019).

T1: human FGFR1b-IIIc extracellular domain with a HIS tag (human, UniProt P11362 22-376)
T1 construct: also called huFGFR1b-IIIc; hFGFR1b-IIIc
T1 sequence: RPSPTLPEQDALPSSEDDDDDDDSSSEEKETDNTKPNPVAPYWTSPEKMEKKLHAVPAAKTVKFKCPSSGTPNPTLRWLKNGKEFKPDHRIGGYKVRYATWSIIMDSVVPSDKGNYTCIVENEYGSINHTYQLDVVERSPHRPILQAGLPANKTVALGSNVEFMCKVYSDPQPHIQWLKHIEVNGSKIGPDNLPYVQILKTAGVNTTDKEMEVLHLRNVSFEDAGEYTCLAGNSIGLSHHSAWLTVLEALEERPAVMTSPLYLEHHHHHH

T2: human FGFR1b-IIIb extracellular domain with a HIS tag (human)
T2 construct: also called huFGFR1b-IIIb; hFGFR1b-IIIb
T2 chain: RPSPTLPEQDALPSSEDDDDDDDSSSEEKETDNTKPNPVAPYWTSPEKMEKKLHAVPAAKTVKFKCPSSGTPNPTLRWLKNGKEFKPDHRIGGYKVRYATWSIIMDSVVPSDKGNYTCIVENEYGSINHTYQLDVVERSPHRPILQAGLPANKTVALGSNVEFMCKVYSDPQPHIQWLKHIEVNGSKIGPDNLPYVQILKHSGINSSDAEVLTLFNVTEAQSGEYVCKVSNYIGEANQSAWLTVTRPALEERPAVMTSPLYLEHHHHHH


Assays:
[1] = molecular target: T1, human FGFR1b-IIIc extracellular domain …; assay: ELISA, EC50 from OD450 curves, monovalent SEEDbody format
Procedure: (§1) The binding selectivity of the antibodies were tested by ELISA against the different FGFR family members: FGFR1, FGFR2, FGFR3 and FGFR4. Briefly plates were coated overnight with the different His6-tagged FGFR proteins, after blocking with 1% Bovine Serum albumin, 1 or 0.1 μg/ml of anti-FGFR1 antibodies were incubated for 1 h at room temperature. After washing, the bound antibodies were incubated for 1 h at room temperature with a peroxidase affiniPure F(ab′)2 Fragment goat anti-human Fc (Jackson ImmunoResearch Laboratories #109-036-098) and detection was performed using the TMB HRP Substrate solution (BioFx Lab # TMBW-1000-01).
(§2) The antibody #A08 both as an IgG1 (bivalent) and as a SEEDbody (monovalent), was affinity matured using the yeast display technology described in (Rhiel et al. 2014) and performing light chain shuffling from immunized OmniRats and naïve human library followed by CDR-H3 parsimonious mutagenesis. Following several sorting rounds, yeast clones were picked, unique clones were reformatted as described in Examples 1.6 and 3.1. The binding affinities of the anti-FGFR1 molecules against human FGFR1b-IIIb) and human FGFR1b-IIIc) were measured by ELISA using a similar protocol as described in Example 1.9. The OD450 was plotted against the antibody concentration and GraphPad Prism software was used to calculate EC₅₀ values (see FIG. 10). […] The best results were obtained with mAb #A02 and #C01 showing an EC50 improvement in both IgG1 and SEEDbody formats.

[2] = molecular target: T2, human FGFR1b-IIIb extracellular domain …; assay: SPR (BIAcore), SEEDbody format; target IIIb by paragraph 74 and paragraph 125, the table's title says IIIc
Procedure: (§3) Binding affinities of anti-FGFR1 antibodies to FGFR1 were measured by Surface Plasmon Resonance (SPR) using a GE Healthcare BIAcore 4000 instrument as follows. Goat anti-human Fc antibody (Jackson ImmunoResearch Laboratories #109-005-098) was first immobilized on BIAcore carboxymethylated dextran CM5 chip using direct coupling to free amino groups following the procedure described by the manufacturer. Antibodies were then captured on the CM5 biosensor chip to achieve approximately 200 response units (RU). Binding measurements were performed using the running HBS-EP+ buffer. A 2-fold dilution series of His-tagged FGFR1 proteins were injected at a flow rate of 30 μl/min at 25° C. Association rates (kₒₙ, per mol/s) and dissociation rates (koff, per s) were calculated using a simple 1:1 Langmuir binding model (Biacore 4000 Evaluation Software). The equilibrium dissociation constant (KD, mol) was calculated as the ratio of koff/kₒₙ.
(§4) The affinities to human FGFR1b-IIIb for the affinity matured clones reformatted as IgG and monovalent SEEDbodies were measured by BIAcore (using a protocol similar to the one described in Example 1.8) and compared to those of mAb #08 (Table 5).

[3] = molecular target: T2, human FGFR1b-IIIb extracellular domain …; assay: ELISA, EC50 from OD450 curves, monovalent SEEDbody format
Procedure: as §1, §2

[4] = molecular target: T1, human FGFR1b-IIIc extracellular domain …; assay: ELISA, EC50 from OD450 curves, IgG1 format
Procedure: as §1
The antibody #A08 both as an IgG1 (bivalent) and as a SEEDbody (monovalent), was affinity matured using the yeast display technology described in (Rhiel et al. 2014) and performing light chain shuffling from immunized OmniRats and naïve human library followed by CDR-H3 parsimonious mutagenesis. Following several sorting rounds, yeast clones were picked, unique clones were reformatted as described in Examples 1.6 and 3.1. The binding affinities of the anti-FGFR1 molecules against human FGFR1b-IIIb) and human FGFR1b-IIIc) were measured by ELISA using a similar protocol as described in Example 1.9. The OD450 was plotted against the antibody concentration and GraphPad Prism software was used to calculate EC₅₀ values (see FIG. 10). […]

[5] = molecular target: T2, human FGFR1b-IIIb extracellular domain …; assay: SPR (BIAcore), IgG1 format; target IIIb by paragraph 74 and paragraph 125, the table's title says IIIc
Procedure: as §3, §4

Row | Binder | binding result [1] | Kd [5] [nM] | further results
1 | #D01 SEEDbody (monovalent) (antibody, also called #D01-SEED(AG)) heavy: QVQLQESGPGLVKPSGTLSLTCAVSGGSISSNNWWSWVRQPPGKGLEWIGEIYHSGSTSYNPSLKSRVTISVDKSKNQFSLKLSSVTAADTAVYYCARATDWFDHWGQGTLVTVSSASTKGPSVFPLAPSSKSTSGGTAALGCLVKDYFPEPVTVSWNSGALTSGVHTFPAVLQSSGLYSLSSVVTVPSSSLGTQTYICNVNHKPSNTKVDKRVEPKSCDKTHTCPPCPAPELLGGPSVFLFPPKPKDTLMISRTPEVTCVVVDVSHEDPEVKFNWYVDGVEVHNAKTKPREEQYNSTYRVVSVLTVLHQDWLNGKEYKCKVSNKALPAPIEKTISKAKGQPFRPEVHLLPPSREEMTKNQVSLTCLARGFYPKDIAVEWESNGQPENNYKTTPSRQEPSQGTTTFAVTSKLTVDKSRWQQGNVFSCSVMHEALHNHYTQKTISLSPG EPKSSDKTHTCPPCPAPELLGGPSVFLFPPKPKDTLMISRTPEVTCVVVDVSHEDPEVKFNWYVDGVEVHNAKTKPREEQYNSTYRVVSVLTVLHQDWLNGKEYKCKVSNKALPAPIEKTISKAKGQPREPQVYTLPPPSEELALNELVTLTCLVKGFYPSDIAVEWLQGSQELPREKYLTWAPVLDSDGSFFLYSILRVAAEDWKKGDTFSCSVMHEALHNHYTQKSLDRSPG light: SYVLTQPPSVSVAPGQTARITCGGNNIGSESVHWYQQKPGQAPVLVVYDDSDRPSGIPERFSGSNSGNTATLTISRVEAGDEADYYCQVWDSTSDHRVFGGGTKLTVLGQPKAAPSVTLFPPSSEELQANKATLVCLISDFYPGAVTVAWKADSSPVKAGVETTTPSKQSNNKYAASSYLSLTPEQWKSHKSYSCQVTHEGSTVEKTVAPTECS | binds |  | Kd [2]: 0.05 nM
2 | SEEDbody #A07 (monovalent) (antibody, also called #A07-SEED(AG)) heavy: QVQLQESGPGLVKPSGTLSLTCAVSGGSISSNNWWSWVRQPPGKGLEWIGEIYHSGSTSYNPSLKSRVTISVDKSKNQFSLKLSSVTAADTAVYYCARGTDWYDPWGQGTLVTVSSASTKGPSVFPLAPSSKSTSGGTAALGCLVKDYFPEPVTVSWNSGALTSGVHTFPAVLQSSGLYSLSSVVTVPSSSLGTQTYICNVNHKPSNTKVDKRVEPKSCDKTHTCPPCPAPELLGGPSVFLFPPKPKDTLMISRTPEVTCVVVDVSHEDPEVKFNWYVDGVEVHNAKTKPREEQYNSTYRVVSVLTVLHQDWLNGKEYKCKVSNKALPAPIEKTISKAKGQPFRPEVHLLPPSREEMTKNQVSLTCLARGFYPKDIAVEWESNGQPENNYKTTPSRQEPSQGTTTFAVTSKLTVDKSRWQQGNVFSCSVMHEALHNHYTQKTISLSPG EPKSSDKTHTCPPCPAPELLGGPSVFLFPPKPKDTLMISRTPEVTCVVVDVSHEDPEVKFNWYVDGVEVHNAKTKPREEQYNSTYRVVSVLTVLHQDWLNGKEYKCKVSNKALPAPIEKTISKAKGQPREPQVYTLPPPSEELALNELVTLTCLVKGFYPSDIAVEWLQGSQELPREKYLTWAPVLDSDGSFFLYSILRVAAEDWKKGDTFSCSVMHEALHNHYTQKSLDRSPG light: SYVLTQPPSVSVAPGQTARITCGGNNIGSESVHWYQQKPGQAPVLVVYDDSDRPSGIPERFSGSNSGNTATLTISRVEAGDEADYYCQVWDSTSDHRVFGGGTKLTVLGQPKAAPSVTLFPPSSEELQANKATLVCLISDFYPGAVTVAWKADSSPVKAGVETTTPSKQSNNKYAASSYLSLTPEQWKSHKSYSCQVTHEGSTVEKTVAPTECS | binds |  | Kd [2]: 0.04 nM
3 | #D02 SEEDbody (monovalent) (antibody, also called #D02-SEED(AG)) heavy: QVQLQESGPGLVKPSGTLSLTCAVSGGSISSNNWWSWVRQPPGKGLEWIGEIYHSGSTSYNPSLKSRVTISVDKSKNQFSLKLSSVTAADTAVYYCARGTDWIDTWGQGTLVTVSSASTKGPSVFPLAPSSKSTSGGTAALGCLVKDYFPEPVTVSWNSGALTSGVHTFPAVLQSSGLYSLSSVVTVPSSSLGTQTYICNVNHKPSNTKVDKRVEPKSCDKTHTCPPCPAPELLGGPSVFLFPPKPKDTLMISRTPEVTCVVVDVSHEDPEVKFNWYVDGVEVHNAKTKPREEQYNSTYRVVSVLTVLHQDWLNGKEYKCKVSNKALPAPIEKTISKAKGQPFRPEVHLLPPSREEMTKNQVSLTCLARGFYPKDIAVEWESNGQPENNYKTTPSRQEPSQGTTTFAVTSKLTVDKSRWQQGNVFSCSVMHEALHNHYTQKTISLSPG EPKSSDKTHTCPPCPAPELLGGPSVFLFPPKPKDTLMISRTPEVTCVVVDVSHEDPEVKFNWYVDGVEVHNAKTKPREEQYNSTYRVVSVLTVLHQDWLNGKEYKCKVSNKALPAPIEKTISKAKGQPREPQVYTLPPPSEELALNELVTLTCLVKGFYPSDIAVEWLQGSQELPREKYLTWAPVLDSDGSFFLYSILRVAAEDWKKGDTFSCSVMHEALHNHYTQKSLDRSPG light: SYVLTQPPSVSVAPGQTARITCGGNNIGSESVHWYQQKPGQAPVLVVYDDSDRPSGIPERFSGSNSGNTATLTISRVEAGDEADYYCQVWDSTSDHRVFGGGTKLTVLGQPKAAPSVTLFPPSSEELQANKATLVCLISDFYPGAVTVAWKADSSPVKAGVETTTPSKQSNNKYAASSYLSLTPEQWKSHKSYSCQVTHEGSTVEKTVAPTECS | binds |  | binding result [3]: binds
4 | mAb #A02 IgG1 (antibody, V domains shown, constant regions not tied) VH: QVQLQESGPGLVKPSGTLSLTCAVSGGSISSNNWWSWVRQPPGKGLEWIGEIYHSGSTSYNPSLKSRVTISVDKSKNQFSLKLSSVTAADTAVYYCARATDWFDLWGQGTLVTVSS VL: SYVLTQPPSVSVAPGQTARITCGGNNIGSESVHWYQQKPGQAPVLVVYDDSDRPSGIPERFSGSNSGNTATLTISRVEAGDEADYYCQVWDSTSDHRVFGGGTKLTVL |  | 0.05 | binding result [4]: binds
5 | #A07 IgG1 (antibody, V domains shown, heavy constant region not tied) VH: QVQLQESGPGLVKPSGTLSLTCAVSGGSISSNNWWSWVRQPPGKGLEWIGEIYHSGSTSYNPSLKSRVTISVDKSKNQFSLKLSSVTAADTAVYYCARGTDWYDPWGQGTLVTVSS VL: SYVLTQPPSVSVAPGQTARITCGGNNIGSESVHWYQQKPGQAPVLVVYDDSDRPSGIPERFSGSNSGNTATLTISRVEAGDEADYYCQVWDSTSDHRVFGGGTKLTVLG |  | 0.06 | 
6 | mAb #C01 IgG1 (antibody, V domains shown, constant regions not tied) VH: QVQLQESGPGLVKPSGTLSLTCAVSGGSISSNNWWSWVRQPPGKGLEWIGEIYHSGSTSYNPSLKSRVTISVDKSKNQFSLKLSSVTAADTAVYYCARATDWFDAWGQGTLVTVSS VL: SYVLTQPPSVSVAPGQTARITCGGNNIGSESVHWYQQKPGQAPVLVVYDDSDRPSGIPERFSGSNSGNTATLTISRVEAGDEADYYCQVWDSTSDHRVFGGGTKLTVL |  | 0.03 | binding result [4]: binds
7 | mAb #D01 IgG1 (antibody, V domains shown, heavy constant region not tied) VH: QVQLQESGPGLVKPSGTLSLTCAVSGGSISSNNWWSWVRQPPGKGLEWIGEIYHSGSTSYNPSLKSRVTISVDKSKNQFSLKLSSVTAADTAVYYCARATDWFDHWGQGTLVTVSS VL: SYVLTQPPSVSVAPGQTARITCGGNNIGSESVHWYQQKPGQAPVLVVYDDSDRPSGIPERFSGSNSGNTATLTISRVEAGDEADYYCQVWDSTSDHRVFGGGTKLTVLG |  | 0.03 | 
8 | #B10 IgG1 (antibody, V domains shown, heavy constant region not tied) VH: QVQLQESGPGLVKPSGTLSLTCAVSGGSISSNNWWSWVRQPPGKGLEWIGEIYHSGSTSYNPSLKSRVTISVDKSKNQFSLKLSSVTAADTAVYYCARATDWYDPWGQGTLVTVSS VL: SYVLTQPPSVSVAPGQTARITCGGNNIGSESVHWYQQKPGQAPVLVVYDDSDRPSGIPERFSGSNSGNTATLTISRVEAGDEADYYCQVWDSTSDHRVFGGGTKLTVLG |  | 0.02 | 
